We go through three substances from article PMC9758184.

Read-outs that look alike come from different tables or passages of the source.

Common to all, as to assay: SEC; Superdex 200 HR 10/30, cold 1x PBS pH 7.2; native size of each protein from its own elution volume against size standards, dark- or light-incubated (same result in both); PmSB-LOV C53A run only in the mixture with PmlR2
For orientation: Size exclusion chromatography separates by hydrodynamic size, large species first.

Test [1] concerns the target PmSB-LOV (Pseudomonas mendocina Sensory box-LOV), wild-type tag-free recombinant protein (Pseudomonas mendocina NBRC 14162).
The target is the same in test [2]. This is another data set of the same source.
For test [3], the target named is PmlR2 (Pseudomonas mendocina light-inducible transcriptional regulator), tag-free recombinant protein (Pseudomonas mendocina NBRC 14162).
The target in test [4] is PmlR2-N (1-113 aa), tag-free recombinant protein containing only the HTH DNA-binding domain (Pseudomonas mendocina NBRC 14162).

In general, stoichiometry N refers to the number of molecules, sites or subunits per partner or assembly. In the case of “PmSB-LOV (Pseudomonas mendocina Sensory box-LOV), wild-type tag-free recombinant protein (natural protein)”, the stoichiometry N is 3 in test [1] and 2 in test [2].
Regarding “PmlR2 (Pseudomonas mendocina light-inducible transcriptional regulator), tag-free recombinant protein (natural protein)”, the stoichiometry N in test [3] came out at 6.
With “PmlR2-N (1-113 aa), tag-free recombinant protein containing only the HTH DNA-binding domain (domain or fragment)”, the stoichiometry N in test [4] amounted to 2.
